Patent US7078038

Key:
[1] = molecular target: CD4 receptor on the cell surface (UniProt P01730); assay: cell-based or functional assay
[2] = molecular target: wild gp120 fixed to CEM cells CD4+/CXCR4+ (HIV-1 (HXB2 clone of HIV-IIIB)) (UniProt P04578); assay: flow cytometry, antibody at 10 µg/ml on gp120 fixed to CEM cells CD4+/CXCR4+
[3] = molecular target: W338S gp120 fixed to CEM cells CD4+/CXCR4+ (HIV-1 (HXB2 clone of HIV-IIIB)) (UniProt P04578); assay: as above
[4] = molecular target: CXCR4 receptor on the cell surface (UniProt P61073); assay: cell-based or functional assay

Substance | Percentage of fusion foci [1] [%] | average fluorescence intensity [2] | average fluorescence intensity [3] | Percentage of fusion foci [4] [%]
112W/S gp120 expressed on the surface of transfected HeLa-Tat cells (gp160 envelope with 112 W/S) (from UniProt P04578 33-856) | 0 |  |  | 
AcM 4.8d (antibody) |  | 76.8 | 209 | 
AcM 17b (antibody) |  | 70.5 | 176 | 
gp160 envelope with 112 W/F in gp120, expressed on transfected HeLa-Tat cells (from UniProt P04578 33-856) | 60 |  |  | 
gp160 envelope with 338 W/S in gp120, expressed on transfected HeLa-Tat cells (from UniProt P04578 33-856) |  |  |  | 0
